According to paper PMC4476257 (Molecular pharmaceutics, 2015):
Like-named read-outs stand apart in the source and are kept apart here. Bridge positions count the residues as written; N and C are the ends. Square brackets hold non-standard residues; d marks the D form. Ends that are not written are not given here. Peptide text beside a SMILES is read from it. I, II: the chains in the order shown. * marks the point of attachment. Dolaproine = CO[C@@H]([C@@H]1CCCN1)[C@@H](C)C(=O)O; Dil = CC[C@H](C)[C@H](NC)[C@@H](CC(=O)O)OC; X1 = C[C@@H](N*)[C@@H](O)c1ccccc1; NMeV = CN[C@H](C(=O)O)C(C)C; Mpa = O=C(O)CCS

Experiments:
[1] = system: HeLa cells; assay: Anti-proliferation assay; details: 5 µM, physiological pH, 2 h treatment, MTT after 72 h, Figures 3A and 3E
[2] = system: HeLa and MDA-MB-231 cells; assay: Anti-proliferation assay, statements pooled over both cell lines; format: cell-based, human; details: HeLa and MDA-MB-231 (Figures 3E, 3F), 2.5 µM, 2 h treatment, MTT after 72 h
[3] = pH 7.4 to pH 5.0, POPC liposomes, peptide:lipid 1:300, 7 µM, 25 °C
[4] = peptide:lipid 1:300, 7 µM, 25 °C, excitation 295 nm
[5] = system: HeLa and MDA-MB-231 cells; assay: Cell membrane integrity assay; format: cell-based, human; details: HeLa and MDA-MB-231, 10 µM, 2 h, pH 7.4 or pH 5.0; mean, n=4; Figure 4
[6] = system: MDA-MB-231 cells; assay: Anti-proliferation assay; format: cell-based, human; details: MDA-MB-231, 1.25 µM, 2 h treatment, MTT after 72 h; Figures 3B and 3D
[7] = toxin derivatives conjugated to pHLIP; cited from earlier work

CC[C@H](C)[C@@H]([C@@H](CC(=O)N1CCC[C@H]1[C@H](OC)[C@@H](C)C(=O)N[C@H](C)[C@@H](O)c1ccccc1)OC)N(C)C(=O)[C@@H](NC(=O)[C@@H](NC)C(C)C)C(C)C [MMAE, monomethyl auristatin E] (H-[NMeV]V[Dil][Dolaproine]-X1)
cytotoxicity [1]: about 70%
cytotoxicity [2]: 20–30%

I: GGEQNPIYWARYADWLFTTPLLLLELALLVDADEGTCG-NH2 / II: [Mpa][NMeV]V[Dil][Dolaproine]-X1 (disulfide I:37-II:1) [pHLIP(D25E)-MMAE]
pH-dependent secondary structure transition (CD) [3]: transition from an unstructured conformation to an α-helix
Trp fluorescence emission maximum ([4]; pH 5.0, POPC liposomes): 329 nm
Trp fluorescence emission maximum ([4]; pH 7.4, POPC liposomes): 347 nm
disruption of the plasma membrane (trypan blue uptake) [5]: neither conjugates, nor low pH treatment, caused disruption of the membranes
cell killing at 1.25 µM (percentage as printed) [6]: 49%

amanitin
pK of insertion [7]: 5.9
